# Legend:
# [1] = target: RSV F glycoprotein nanoparticles (human respiratory syncytial virus A2 (RSV/A2))
# [2] = target: Post-fusion F (human respiratory syncytial virus A2 (RSV/A2)); assay: SPR
# [3] = target: RSV F710 post-fusion (human respiratory syncytial virus A2 (RSV/A2) | bacteriophage T4); assay: cryo-EM structure; single particle cryo-EM of the purified RSV F710-R4.C6 Fab complex on graphene oxide grids; C3 symmetry; overall 3.9 A
substance,measurement,setting,value
Motavizumab (antibody),"RSV/A Long neutralization (IC50), micro-neutralization assay on HEp-2 cells",[1],0.0208 µg/mL
Palivizumab,Kd,[2],340 pM
same,koff,[2],5.79e-05 s⁻¹
RSV F710 post-fusion,stoichiometry N,[3],3
